Consider 1 substance from PMC5025653.

The assay has as its target C-terminal region of IbOr (IbOr-C), recombinant (sweetpotato (Ipomoea batatas)). The assay can be described thus: native gel or EMSA; 10% native PAGE gel, silver-stained; recombinant IbOr and truncated fragments. (Mobility shift assays separate free from complexed probe on a gel.)

One may read the stoichiometry N as the number of molecules, sites or subunits per partner or assembly. For the substance “C-terminal region of IbOr (IbOr-C), recombinant (domain or fragment)”, the stoichiometry N turned out to be 3.
